Square brackets hold non-standard residues; d marks the D form.
How the values were obtained:
[1] = molecular target: Aβ1-42 (Homo sapiens, UniProt P05067); test: ThT test, modulation of Aβ1-42 aggregation; format: biochemical; details: 10 μM Aβ1-42, equimolar peptide, versus Aβ1-42 alone = 100%
Description: FIG. 3: The average relative fluorescence from seven independently performed ThT experiments with standard deviation is shown. The dye Thioflavin T (ThT) binds to β-pleated sheet structures in the batch and thereupon changes its fluorescence spectrum. […] The time in which the logarithmic rise of the fluorescence signal transitioned into a stationary phase was set to 100%.

[2] = molecular target: T1, Aβ1-42 monomers versus Aβ1-42 oligomers and fibrils (biotinylated, D-enantiomeric, immobilized) (Homo sapiens, UniProt P05067); test: Monoclonal phage ELISA; format: binding; details: individual phage clones; species immobilized at 320 nM; absorption at 450 nm normalized with 6E10 control; higher = more monomer-specific
T1 construct: biotinylated, D-enantiomeric Aβ1-42 monomers
Description: The specificity of the peptide results from the difference in % of the absorption values for the target molecule or the bait (for example A beta monomer) and the normalized absorption values for the competitors (for example A beta oligomers and fibrils) in the monoclonal phage ELISA.
The absorption values then constitute the affinity of individual phage clones for a particular immobilized A beta species. Here, the specificity is not dependent on the strength of the affinity, but instead only on the difference of the affinities between the species. […] The terms “competitors” and “target molecule” or “bait” are defined as specified below.
A method for normalizing the obtained values should therefore be performed. From all absorption values of the individual phage clone in the monoclonal phage ELISA, the values of the phage antibodies tested for cross-reaction can be used as background. This occurs in accordance with the previously immobilized species. The signal values of the phage antibody from the reaction trays with immobilized Aβ1-42 oligomers for this purpose can be removed from the signal values of the individual phage clone from the reaction trays with immobilized Aβ1-42 oligomers. A similar process is then carried out for Aβ1-42 monomers. In this way, a possible background signal of the phage antibody can initially be calculated from the signals of the individual phage clone. […] Only in this way is an equal interpretation of the results particularly in respect of the assessment of the specificity of the individual phage clone possible (see FIG. 2).
The affinity of individual phage clones with respect to the target molecule and the competitors was examined by means of ELISA. For this purpose, all three species were immobilized in biotinylated form on a polystyrene surface at streptavidin bound thereon. Since, during the panning rounds, oligomers and fibrils were added at the same time as competitors, these two species were immobilized in the monoclonal phage ELISA, likewise mixed. […] The streptavidin-coated microtiter plates were pre-washed as specified by the manufacturer. […] For immobilization, 100 μl were used per reaction tray and were incubated for 15 minutes at room temperature. After having washed the entire plate(s) twice with 150 μl 1×TBS per reaction tray, a blocking step with 150 μl 1×TBS/0.1% (v/v) Tween-20/1% (w/v) BSA was performed for an hour at room temperature. Three washing steps with 150 μl 1×TBS/0.1% (v/v) Tween-20 then followed per reaction tray. The amplified individual phage clones were mixed 1:1 with 1× TBS/1% (w/v) BSA. The antibody 6E10 was diluted 1:10,000 in 1×TBS/0.1% (v/v) Tween-20. […] After washing five times with 150 μl 1×TBS/0.1% (v/v) Tween-20 per reaction tray, 200 μl 1×TBS/0.1% (v/v) Tween-20 were placed in each reaction tray, and the plate(s) incubated for one hour at room temperature. The solutions were removed and replaced as follows: In all reaction trays that had been incubated previously with individual phage clone dilutions or the batch without phages, 100 μl of a phage antibody diluted 1:5,000 in 1×TBS/0.1% (v/v) Tween-20 were now added. The enzyme horseradish peroxidase (HRP) was coupled to this antibody and later served for the conversion of a substrate (TMB). […] At the same time, 100 μl of a second antibody diluted 1:1,000 in 1×TBS/0.1% (v/v) Tween-20 were now added to all reaction trays that had been previously incubated with the dilution of the 6E10 antibody, said second antibody being able to identify and bind to the 6E10 antibody originating from mice. This antibody is also HRP-coupled and thus allows a quantification of the binding of the first antibody to the immobilized target molecules or the plastics surface of the reaction tray. After one hour of incubation at room temperature, the plate(s) was/were washed 10 times with 150 μl 1×TBS/0.1% (v/v) Tween-20 per reaction tray. The signal was detected by adding the substrate 3,3′,5,5′-tetramethylbenzidine (TMB). […]

[3] = tested on: transgenic AD mice; details: oral administration in drinking water; cited from earlier work
[4] = molecular target: Aβ1-42 species of different size (Homo sapiens, UniProt P05067); test: Density gradient centrifugation, tris-tricine SDS gel and silver staining of Aβ1-42 species; format: biochemical; details: 80 μM Aβ1-42 pre-incubated […], 40 μM peptide for 40 minutes
Protocol: The batch was then incubated either with or without addition of peptide for a further 40 minutes and was then placed on an iodixanol density gradient. The gradient was then centrifuged, wherein the contents of the sample (Aβ1-42 species of different size) diffused within the gradient in accordance with their size and shape. The gradient was fractionated after centrifugation into 15 fractions (1-15), and the first 14 individual fractions were applied to a tris-tricine SDS gel. The contents per fraction were separated electrophoretically. […] The batch was then incubated either without (A) or with addition of different concentrations of Mosd1 (B=10 μM Mossd1; C=20 μM Mosd1; D=40 μM Mosd1; E=80 μM Mosd1) for a further 40 minutes and was then placed on an iodixanol density gradient. The gradient was then centrifuged, wherein the contents of the sample (Aβ1-42 species of different size) diffused within the gradient in accordance with their size and shape. The gradient was fractionated after centrifugation (1-15), and the individual fractions were applied to a tris-tricine SDS gel. The contents per fraction were separated electrophoretically.

[5] = tested on: PC-12 cells; test: MTT reduction test, Aβ1-42-induced cell toxicity; format: cell-based; details: 0.1% TritonX-100, positive control for cell toxicity
Protocol: The samples were placed in the culture medium of the cells and were incubated over 24 hours with the cells at 37° C. The viability of the cells was then determined on the basis of an MTT test. Here, a metabolic reactant was supplied to the cells, which reactant could be converted by metabolically active cells (living cells). Formazan crystals are the product of this conversion and can be dissolved. The coloration of the medium after solubilization corresponds to the conversion rate of the reactant and therefore the viability of the cells. Untreated cells (medium, white chequered pattern) served as living control, and the proportion of vital cells was defined as 100%. The values of the other batches were normalized to this value.

T1 sequence (P05067 672-713): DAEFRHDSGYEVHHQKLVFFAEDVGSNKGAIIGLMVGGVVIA
Aβ1-42, sequence (P05067 672-713 limits assumed): as the sequence (P05067 672-713) above
Aβ1-42 species of different size, sequence (P05067 672-713 limits assumed): as the sequence (P05067 672-713) above

| Substance | relative ThT fluorescence (formation of β-pleated sheet structures) [1] | Difference in signal strength between Aβ1-42 monomers (100%) and Aβ1-42 oligomers and fibrils [2] [%] | further results |
| --- | --- | --- | --- |
| HNWFYWTTEPYD (H-[dH][dN][dW][dF][dY][dW][dT][dT][dE][dP][dY][dD]-NH2; SMILES C[C@H](O)[C@@H](NC(=O)[C@@H](Cc1c[nH]c2ccccc12)NC(=O)[C@@H](Cc1ccc(O)cc1)NC(=O)[C@@H](Cc1ccccc1)NC(=O)[C@@H](Cc1c[nH]c2ccccc12)NC(=O)[C@@H](CC(N)=O)NC(=O)[C@H](N)Cc1c[nH]cn1)C(=O)N[C@@H](C(=O)N[C@H](CCC(=O)O)C(=O)N1CCC[C@@H]1C(=O)N[C@H](Cc1ccc(O)cc1)C(=O)N[C@H](CC(=O)O)C(N)=O)[C@H](C)O) [Mosd4] | only a very small influence | 69.154 |  |
| GQWDFRQWWQPC (H-G[dQ][dW][dD][dF][dR][dQ][dW][dW][dQ][dP][dC]-NH2; SMILES N=C(N)NCCC[C@@H](NC(=O)[C@@H](Cc1ccccc1)NC(=O)[C@@H](CC(=O)O)NC(=O)[C@@H](Cc1c[nH]c2ccccc12)NC(=O)[C@@H](CCC(N)=O)NC(=O)CN)C(=O)N[C@H](CCC(N)=O)C(=O)N[C@H](Cc1c[nH]c2ccccc12)C(=O)N[C@H](Cc1c[nH]c2ccccc12)C(=O)N[C@H](CCC(N)=O)C(=O)N1CCC[C@@H]1C(=O)N[C@H](CS)C(N)=O) [Mosd15] |  | 59.985 |  |
| HTWTHWFSWNVP (H-[dH][dT][dW][dT][dH][dW][dF][dS][dW][dN][dV][dP]-NH2; SMILES CC(C)[C@@H](NC(=O)[C@@H](CC(N)=O)NC(=O)[C@@H](Cc1c[nH]c2ccccc12)NC(=O)[C@@H](CO)NC(=O)[C@@H](Cc1ccccc1)NC(=O)[C@@H](Cc1c[nH]c2ccccc12)NC(=O)[C@@H](Cc1c[nH]cn1)NC(=O)[C@H](NC(=O)[C@@H](Cc1c[nH]c2ccccc12)NC(=O)[C@H](NC(=O)[C@H](N)Cc1c[nH]cn1)[C@H](C)O)[C@H](C)O)C(=O)N1CCC[C@@H]1C(N)=O) [Mosd10] |  | 71.902 |  |
| rprtrlhthrnr [Mosd D3] |  |  | cognitive capabilities [3]: significantly improved cognitive capabilities; plaques [3]: much fewer plaques |
| HTWTTYDYVWRL (H-[dH][dT][dW][dT][dT][dY][dD][dY][dV][dW][dR][dL]-NH2; SMILES CC(C)C[C@@H](NC(=O)[C@@H](CCCNC(=N)N)NC(=O)[C@@H](Cc1c[nH]c2ccccc12)NC(=O)[C@H](NC(=O)[C@@H](Cc1ccc(O)cc1)NC(=O)[C@@H](CC(=O)O)NC(=O)[C@@H](Cc1ccc(O)cc1)NC(=O)[C@H](NC(=O)[C@H](NC(=O)[C@@H](Cc1c[nH]c2ccccc12)NC(=O)[C@H](NC(=O)[C@H](N)Cc1c[nH]cn1)[C@H](C)O)[C@H](C)O)[C@H](C)O)C(C)C)C(N)=O) [Mosd2] | increase the ThT fluorescence | 67.145 | oligomeric Aβ1-42 species (fractions 4-7) [4]: reduce; proportions of high-molecular Aβ1-42 species (fractions 10-14) [4]: increase |
| VHWDFRQWWQQS (H-[dV][dH][dW][dD][dF][dR][dQ][dW][dW][dQ][dQ][dS]-NH2; SMILES CC(C)[C@@H](N)C(=O)N[C@H](Cc1c[nH]cn1)C(=O)N[C@H](Cc1c[nH]c2ccccc12)C(=O)N[C@H](CC(=O)O)C(=O)N[C@H](Cc1ccccc1)C(=O)N[C@H](CCCNC(=N)N)C(=O)N[C@H](CCC(N)=O)C(=O)N[C@H](Cc1c[nH]c2ccccc12)C(=O)N[C@H](Cc1c[nH]c2ccccc12)C(=O)N[C@H](CCC(N)=O)C(=O)N[C@H](CCC(N)=O)C(=O)N[C@H](CO)C(N)=O) [Mosd12] |  | 59.012 |  |
| GTMLKFSGMNLT (H-G[dT][dM][dL][dK][dF][dS]G[dM][dN][dL][dT]-NH2; SMILES CSCC[C@@H](NC(=O)CNC(=O)[C@@H](CO)NC(=O)[C@@H](Cc1ccccc1)NC(=O)[C@@H](CCCCN)NC(=O)[C@@H](CC(C)C)NC(=O)[C@@H](CCSC)NC(=O)[C@H](NC(=O)CN)[C@H](C)O)C(=O)N[C@H](CC(N)=O)C(=O)N[C@H](CC(C)C)C(=O)N[C@@H](C(N)=O)[C@H](C)O) [Mosd3] | increase the ThT fluorescence | 59.955 | oligomeric Aβ1-42 species (fractions 4-7) [4]: reduce; proportions of high-molecular Aβ1-42 species (fractions 10-14) [4]: increase |
| DWSSRVYRDPQT (H-[dD][dW][dS][dS][dR][dV][dY][dR][dD][dP][dQ][dT]-NH2; SMILES CC(C)[C@@H](NC(=O)[C@@H](CCCNC(=N)N)NC(=O)[C@@H](CO)NC(=O)[C@@H](CO)NC(=O)[C@@H](Cc1c[nH]c2ccccc12)NC(=O)[C@H](N)CC(=O)O)C(=O)N[C@H](Cc1ccc(O)cc1)C(=O)N[C@H](CCCNC(=N)N)C(=O)N[C@H](CC(=O)O)C(=O)N1CCC[C@@H]1C(=O)N[C@H](CCC(N)=O)C(=O)N[C@@H](C(N)=O)[C@H](C)O) [Mosd16] |  | 52.387 |  |
| TritonX-100 [reference compound] |  |  | amount of viable cells (untreated cells = 100%) [5]: 1.5% |

Source: US10239923B2, “Specific amyloid beta binding peptides and the use of same for treating and diagnosing alzheimer's dementia” (Forschungszentrum Juelich GmbH, priority 2015, dated 2019)
